# Target: recombinant human CD40 (Homo sapiens, UniProt P25942)
# Experiment: Surface plasmon resonance analysis of affinity for CD40
# Type: binding
# Protocol: The binding analyses of recombinant CFZ533 were performed at 25° C. with HBS−EP+ as running buffer. A typical binding analysis cycle consisted of three steps: (i) capture of the antibody via ProteinA immobilized on the chip surface, (ii) binding of CD40 antigen to the captured anti-CD40 antibody, and (iii) regeneration of the ProteinA surface. To determine the kinetic rate constants of the antigen-antibody binding interactions, binding data were processed, double referenced with responses from blank injections. The binding curves were fitted locally using the 1:1 interaction model of the Biacore T100 Evaluation software to determine kinetic rate constants. The value for the equilibrium dissociation constant (KD) was calculated as the ratio of the rate constants kd/ka. All binding measurements were performed in two independent experiments.
# Chain of recombinant human CD40 (P25942 21-277): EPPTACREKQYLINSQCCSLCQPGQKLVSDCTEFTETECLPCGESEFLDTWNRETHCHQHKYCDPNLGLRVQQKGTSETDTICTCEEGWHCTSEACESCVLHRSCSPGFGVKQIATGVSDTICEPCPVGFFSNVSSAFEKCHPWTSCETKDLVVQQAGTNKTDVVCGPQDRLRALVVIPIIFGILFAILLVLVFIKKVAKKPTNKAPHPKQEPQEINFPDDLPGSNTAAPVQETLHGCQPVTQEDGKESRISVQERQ
substance,measurement,setting,value
"CFZ533: human anti-CD40 IgG1 monoclonal antibody with Fc-silencing N297A mutation; heavy chain SEQ ID NO: 9, light chain SEQ ID NO: 10",ka [1/Ms],"SPR, 25° C.",3.13 ± 0.73 × 10^5 1/Ms
same,kd [1/s],"SPR, 25° C.",0.93 ± 0.14 × 10^−4 1/s
same,Kd,surface plasmon resonance,0.3 nM

# Reference: patent US11780927B2, “Anti-CD40 antibodies for use in prevention of graft rejection” (NOVARTIS AG, priority 2018, dated 2023)
